In this test the target is human CD22 on cells (Daudi, Raji, Nalm.6, K562-CD22) (human) (UniProt P20273). As to the kind of experiment: flow cytometry on K562.huCD22.Luc cells against parental K562 cells, 4 C 30 min.

Consider one substance from patent US20230250184A1.

UniProt P20273, sequence (P20273 20-847): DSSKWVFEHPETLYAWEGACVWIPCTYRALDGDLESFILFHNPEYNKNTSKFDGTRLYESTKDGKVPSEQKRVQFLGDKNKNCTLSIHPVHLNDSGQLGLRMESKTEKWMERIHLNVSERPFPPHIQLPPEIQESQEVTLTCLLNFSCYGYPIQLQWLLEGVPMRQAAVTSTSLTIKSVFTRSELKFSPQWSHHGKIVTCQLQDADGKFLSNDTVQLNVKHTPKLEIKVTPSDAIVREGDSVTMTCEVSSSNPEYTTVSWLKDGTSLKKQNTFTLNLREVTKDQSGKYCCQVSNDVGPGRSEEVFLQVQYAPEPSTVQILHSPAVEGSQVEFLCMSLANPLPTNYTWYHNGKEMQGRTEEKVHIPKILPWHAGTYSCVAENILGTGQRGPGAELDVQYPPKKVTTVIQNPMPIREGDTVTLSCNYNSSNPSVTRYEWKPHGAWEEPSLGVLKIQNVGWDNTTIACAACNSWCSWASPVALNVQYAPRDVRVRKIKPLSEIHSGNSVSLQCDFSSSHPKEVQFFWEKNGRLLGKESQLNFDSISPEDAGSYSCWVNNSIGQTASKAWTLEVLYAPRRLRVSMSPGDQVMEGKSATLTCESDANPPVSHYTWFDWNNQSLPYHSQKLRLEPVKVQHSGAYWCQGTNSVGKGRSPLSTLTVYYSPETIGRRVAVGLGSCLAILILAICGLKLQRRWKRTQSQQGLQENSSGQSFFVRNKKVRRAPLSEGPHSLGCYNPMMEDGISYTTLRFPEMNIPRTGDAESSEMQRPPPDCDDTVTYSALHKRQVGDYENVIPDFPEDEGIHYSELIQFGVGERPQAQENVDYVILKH

Regarding “PE conjugated anti-human CD22 antibody (Miltenyi Biotec, Cat. No. 130-105-086)”, the MFI fold over K562 cells (negative control) turned out to be 642 fold.
